Data reported in US20120093724.

Legend:
semenogelin I = semenogelin I (UniProt P04279)
semenogelin II = semenogelin II (UniProt Q02383)
semenogelin II, sequence (Q02383 24-582): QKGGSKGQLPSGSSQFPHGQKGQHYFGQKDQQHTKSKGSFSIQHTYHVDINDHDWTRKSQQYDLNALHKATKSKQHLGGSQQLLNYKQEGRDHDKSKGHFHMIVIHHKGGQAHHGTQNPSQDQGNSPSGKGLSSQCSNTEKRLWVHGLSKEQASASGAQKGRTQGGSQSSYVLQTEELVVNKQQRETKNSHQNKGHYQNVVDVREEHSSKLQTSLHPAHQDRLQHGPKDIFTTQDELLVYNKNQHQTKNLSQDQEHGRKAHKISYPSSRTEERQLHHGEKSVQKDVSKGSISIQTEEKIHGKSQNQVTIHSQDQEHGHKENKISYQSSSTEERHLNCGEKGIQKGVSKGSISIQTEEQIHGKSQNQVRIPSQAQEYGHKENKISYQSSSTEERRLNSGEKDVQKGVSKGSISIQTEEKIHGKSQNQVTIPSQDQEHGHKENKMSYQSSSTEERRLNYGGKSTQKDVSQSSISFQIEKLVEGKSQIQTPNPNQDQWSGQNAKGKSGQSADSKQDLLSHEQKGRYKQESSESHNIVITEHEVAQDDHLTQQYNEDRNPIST

semenogelin I, sequence (P04279 24-462): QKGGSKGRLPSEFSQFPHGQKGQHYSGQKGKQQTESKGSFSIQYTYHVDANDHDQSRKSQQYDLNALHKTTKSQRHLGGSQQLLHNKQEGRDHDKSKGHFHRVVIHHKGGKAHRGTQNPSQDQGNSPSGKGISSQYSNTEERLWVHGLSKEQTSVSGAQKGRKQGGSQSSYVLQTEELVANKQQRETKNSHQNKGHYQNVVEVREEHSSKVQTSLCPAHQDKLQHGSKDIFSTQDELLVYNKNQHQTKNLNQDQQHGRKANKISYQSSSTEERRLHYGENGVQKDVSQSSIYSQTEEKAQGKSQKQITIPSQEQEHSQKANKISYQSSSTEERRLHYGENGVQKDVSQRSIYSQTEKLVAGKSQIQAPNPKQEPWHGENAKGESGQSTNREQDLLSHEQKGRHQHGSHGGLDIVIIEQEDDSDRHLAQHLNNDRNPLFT

For human glandular kallikrein 2, the number of cleavage sites sequenced (cleavage sites) (semenogelin I) was 4, the “proteolytic cleavage (fragments by HPLC)” value (semenogelin I) was “Cleavage of either Sg I or Sg II with hK2 results in generation of a multitude of peptides” and the number of cleavage sites sequenced (cleavage sites) (semenogelin II) was 7. For the same substance, the “proteolytic cleavage (fragments by HPLC)” value (semenogelin II) was “Cleavage of either Sg I or Sg II with hK2 results in generation of a multitude of peptides”.
